Patent US20060153775A1
Positions of bridges follow the written chain, without caps; N, C: chain ends. Non-standard residues stand in square brackets, D forms with d. No end group written: not given here. AEEA = NCCOCCOCC(=O)O

Tests used:
[1] = target: binding target for TKPPR on HAEC (human aortic endothelial cells); assay: competition of 2% D47 bubble binding to HAEC; D55 200 µM
[2] = target: binding target for TKPPR on HAEC (human aortic endothelial cells); assay: competition of 2% D47 bubble binding to HAEC; D55 100 µM
[3] = target: binding target for TKPPR on HAEC (human aortic endothelial cells); assay: competition of 2% D47 bubble binding to HAEC; D55 50 µM
[4] = target: binding target for TKPPR on HAEC (human aortic endothelial cells); assay: fluorescent beads on confluent HAEC, static 30 min, image analysis
[5] = target: VEGF receptors on HUVECs; assay: competition with 125I-VEGF for binding to HUVECs
[6] = target: binding target for TKPPR on HAEC (human aortic endothelial cells); assay: competition of 1% D47 bubble binding to HAEC; TKPR 5 µM
[7] = target: binding target for TKPPR on HAEC (human aortic endothelial cells); assay: competition of 1% D47 bubble binding to HAEC; TKPR 25 µM
[8] = target: binding target for TKPPR on HAEC (human aortic endothelial cells); assay: competition of 1% D47 bubble binding to HAEC; TKPR 10 µM
[9] = target: binding target for TKPPR on HAEC (human aortic endothelial cells); assay: competition of 1% D47 bubble binding to HAEC; TKPR 50 µM
[10] = target: binding target for TKPPR on HAEC (human aortic endothelial cells); assay: competition of 1% D47 bubble binding to HAEC; TKPR 100 µM
[11] = target: binding target for TKPPR on HAEC (human aortic endothelial cells); assay: competition of 2% D47 bubble binding to HAEC; D54 200 µM
[12] = target: binding target for TKPPR on HAEC (human aortic endothelial cells); assay: competition of 2% D47 bubble binding to HAEC; D54 50 µM
[13] = target: binding target for TKPPR on HAEC (human aortic endothelial cells); assay: competition of 2% D47 bubble binding to HAEC; D54 100 µM
[14] = target: binding target for TKPPR on HAEC (human aortic endothelial cells); assay: beads perfused over HAEC in a parallel plate flow cell, 37 C

With CTKPPRC (disulfide 1-7 (inferred)) [cyclic disulfide CTKPPRC (D55)] the Bubbles Bound % in presence of competitor [1] was 99 % of control, the Bubbles Bound % in presence of competitor [2] was 71 % of control and the Bubbles Bound % in presence of competitor [3] was 97 % of control.

GRGDSP (also: coupled by EDAC to carboxylate-modified FluoSpheres, site not given here) [GRGDSP-conjugated fluorescent microspheres] gave an Integrated density of bound beads (arbitrary units) [4] of 28.6.

B1: TKPPR tetramer D41, OG-(TKPPR)4 (peptide)
peptide: [AEEA]TKPPR
modifications: also: tetramer of four TKPPR on a branched non-peptide scaffold, one Oregon Green label on scaffold
For B1, the IC50 [5] was 10 µM.

TKPR [Tuftsin (TKPR)] showed a Bubbles Bound in presence of competitor [6] of 1150 bubbles, a Bubbles Bound in presence of competitor [7] of 1170 bubbles and a Bubbles Bound in presence of competitor [8] of 976 bubbles. The Bubbles Bound in presence of competitor [9] was 904 bubbles and the Bubbles Bound in presence of competitor [10] was 556 bubbles.

For CTKPPRC [linear CTKPPRC (D54)], the Bubbles Bound % in presence of competitor [11] was 88 % of control, the Bubbles Bound % in presence of competitor [12] was 97 % of control and the Bubbles Bound % in presence of competitor [13] was 78 % of control.

B2: TKPPR-conjugated red fluorescent microspheres (peptide)
peptide: TKPPR
modifications: also: amino group coupled by EDAC to carboxylate-modified FluoSpheres, which amino group not given here
B2 showed a Bound at 1.53 dynes/cm^2 [14] of 86 beads and an Integrated density of bound beads (arbitrary units) [4] of 230.
